The results in this text go back to patent US20250034594A1, “RNA-GUIDED GENOME RECOMBINEERING AT KILOBASE SCALE” (THE BOARD OF TRUSTEES OF THE LELAND STANFORD JUNIOR …, priority 2021, published 2025).

Holding throughout (type): cell-based
One test relates to gene editing with Cas9. The test is described as follows: Screen of 322 new SSAP proteins, gene editing activity with Cas9 (Table 5). Further details: Cas9 with SSAP activity: scale not given here. In outline:
(§1)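 Synthetic SSAP candidates, identified computationally, were tested in editing screens using both Cas9 and dCas9.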

The subject of another test is gene editing with dCas9. The test is described as follows: Screen of 322 new SSAP proteins, gene editing activity with dCas9 (Table 5). Further details: dCas9 with SSAP activity: scale not given here. In outline: as §1
Test [1] concerns gene editing with Cas9 and dCas9. As to the kind of experiment: Screen of 322 new SSAP proteins, activity across all experiments (Cas9 and dCas9, Table 5). The arrangement: scale not given here. Summed up:
as §1

B1: SSAP_263: SEQ ID NO: 432; Gulosibacter molinativorax (protein)
chain: TDLTEKIATKAVAVKKDPKIADLMKSYEPQFARSLGKSMDAAKFGQDALTAIKQTPKLLEADQRSLFGAIFLAAQLKLPVGGPLAQFHLTPRKVAGEMTVVPIIGYNGYIQLAMNTGLYSKVGAFTVHANDHFRTGANSERGEFYDYERATGDRGELTGVIGYAKVKGFDESSFVYLDAATVRERHRPKFWDKTPWASDEGEMFRKTAIRVLQKYLPKSIEAAPLALAAQADQATVRRVDGVDDLQIDHEDIAIAEVIEDD
modifications: Gulosibacter molinativorax
Take B1: in the test with gene editing with Cas9, the “Cas9 with SSAP activity” value is −1.201 and the “Cas9 with SSAP activity (normalized)” value is −0.666. In the test on gene editing with dCas9, the “dCas9 with SSAP activity” value is −2.069 and the “dCas9 with SSAP activity (normalized)” value is −0.685. The “Activity across all experiments” value in test [1] is given as −1.635.

B2: SSAP_68: SEQ ID NO: 237 (protein)
chain: TQQMPIEAQGEPTKELQQKAAVDRFNATLHQMQNEIARALPKHMTGDRFVRIVLTEVRKDPTLALCDPLTMFGSLLTAAALGLEPGLNGECWLVPRKNHGTLEAQLQVGYRGVVKLFWQNPAAAYLDTGYVCERDHFRFAKGLNPILEHTPAEGDRGKVVRYYAVAGLNTGARVFDVFTPAQIKTLRGGKVGSNGDIPDPEHWMERKTALLQVLKLMPKSTQLAAVPAADGRAHTISDAQQIFGGVDTSTGEVLEAEPVEGDAA
As for B2, in the test on gene editing with Cas9, the “Cas9 with SSAP activity” value is given as 1.110 and the “Cas9 with SSAP activity (normalized)” value was found to be 4.696. In the test with gene editing with dCas9, the “dCas9 with SSAP activity” value is on record as −2.230 and the “dCas9 with SSAP activity (normalized)” value is given as −0.296. The “Activity across all experiments” value in test [1] is reported as −0.560.

B3: SSAP_155: SEQ ID NO: 324; Staphylococcus nepalensis (protein, listed as Staphylococcus nepalensis)
chain: ATQNQFKNQLTQKKENNNQPQQKAVGPKQEISNLLDRMAPQIQKALPQHMSAERMARIAMTAVSSTPKLLECDPKSLIGALMQSSQIGLEPNTNLGQAYLIPYGKEVQLQVSYLGMIELANRSKQYKAIYAHEVYPEDYFEYQYGLQKDLIHKPADNPQSEPIGYYAVYHLLNGGYDFVYWSKAKIDDHARQFSKAVQKGWQSPWKTNFNAMAKKTVLKDLLKFAPKSIEMNNAVSSDSKAQQIDDDGNIIDVTDYSQVNDEPEQLQEGQ
For the molecule B3, in the test with gene editing with Cas9, the “Cas9 with SSAP activity” value is listed as −2.139 and the “Cas9 with SSAP activity (normalized)” value is −0.908. Also, in the test on gene editing with dCas9, the “dCas9 with SSAP activity” value is given as −2.105 and the “dCas9 with SSAP activity (normalized)” value is on record as −0.826. Moreover, in test [1], the “Activity across all experiments” value is −2.122.

B4: SSAP_142: SEQ ID NO: 311; Roseburia intestinalis (protein, listed as Roseburia intestinalis)
chain: GDIRSELAKKAEQTQGNTKLTKSMSIADLIKAMEPEIQKALPSVITPERFTRMALSALNTTPKLQECTPMSFLAALMNAAQLGLEPNTPLGQAYLIPYKNKNVLECQFQLGYRGMIDLAYRNGHMQSIEAQAVYENDVFSYALGLHPELVHKPTLEEKGALKAFYAIFRLDNGGFRFEVMGKTYIDWYANRYSKAFTSEFSPWKSNYEGMAKKTVIKQLLKYAPLKTEFQRALSTDETIKNSLNVDMGEVLSEDIIDMPCEEVA
For the molecule B4, in the test on gene editing with Cas9, the “Cas9 with SSAP activity” value is given as 0.197 and the “Cas9 with SSAP activity (normalized)” value came out at 0.073. Further, in the test on gene editing with dCas9, the “dCas9 with SSAP activity” value is −2.145 and the “dCas9 with SSAP activity (normalized)” value is reported as −1.216. Also, the “Activity across all experiments” value in test [1] is on record as −0.974.

B5: SSAP_276: SEQ ID NO: 445; Oceanobacillus sp. Castelsardo (protein, listed as Oceanobacillus sp.)
chain: ATNSTLKNQISNKKQGNNQVGKTQGTTMKQLLASPAVMNRFEEVLGKRANQFTASILGLYNSEKMLQKAEPMSVISSAMIAATLDLPVDKNLGYAWIVPYGGKAQFQMGYKGYIQLALRTGQYRNINVIEVYEGELKKWDRLTEEIELDFESRTSDKVIGYTGYFELINGFRKTVYWSKEDVEKHKKRFSKSDFGWKNDWDAMARKTVIRNMLNKWGILSIDMQKGMVEDSKDPVEVNEEFSSDVIDADYEVVGENEQQDFTVEENA
In the case of B5, in the test on gene editing with Cas9, the “Cas9 with SSAP activity” value is given as −2.551 and the “Cas9 with SSAP activity (normalized)” value was −0.452. Further, in the test with gene editing with dCas9, the “dCas9 with SSAP activity” value is listed as −2.052 and the “dCas9 with SSAP activity (normalized)” value was −0.337. Also, the “Activity across all experiments” value in test [1] was −2.301.

B6: SSAP_101: SEQ ID NO: 270; Halomonadaceae bacterium R4HLG17 (protein)
chain: SEVATQDTLGKELQQHSGQQKKPMPTTIQGMLKDPRFTSQIARALPKHITPDRITRIALTEVNKTPALGKCDPVTLFGSIIQSAQLGLELGGALGHAYLVPYGNQAQFIIGYRGMIDLARRSGQMVSLQAHTVHDNDEFDFEYGLDEKLRHVPARGDRGPMVAVYSVAKLVGGGHQIEVMWKEDVDAIRSKSKAGNSGPWRDHYEEMAKKTAIRRLFKYLPVSVEMQKAVALDEQAEAGVQDNNVFDGEFSYGEAE
modifications: Halomonadaceae bacterium R4HLG17
In the case of B6, in the test on gene editing with Cas9, the “Cas9 with SSAP activity” value was −1.798 and the “Cas9 with SSAP activity (normalized)” value is recorded as −0.307. Moreover, in the test on gene editing with dCas9, the “dCas9 with SSAP activity” value was −2.273 and the “dCas9 with SSAP activity (normalized)” value is −0.413. Moreover, the “Activity across all experiments” value in test [1] is on record as −2.036.

B7: SSAP_165: SEQ ID NO: 334; Robinsoniella sp. KNHs210 (protein, listed as Robinsoniella sp.)
chain: TTRTGNIKEELAKKAEGTNGDTRLTKAMSIADLIKAMEPEIKKALPEVITPERFTRMALSALNTTPKLRECTQISFLAAMMNAAQLGLEPNTPLGQAYLIPFNNKGTMECQFQIGYKGMIDLSYRNPQMQMISAQAVYENDEFKYELGLNPTLIHRPVLRGRGEVILFYGLFKLTNGGYGFEVMSKEEMDAYAKAYSKAIDSSFSPWKSNYNGMAKKTVIKQVLKYAPIKADFRKALSSDETIKNEISENMSEIHGEIIFDTDYMEESA
As to B7, in the test with gene editing with Cas9, the “Cas9 with SSAP activity” value is recorded as −0.918 and the “Cas9 with SSAP activity (normalized)” value is −0.925. Moreover, in the test with gene editing with dCas9, the “dCas9 with SSAP activity” value is −2.157 and the “dCas9 with SSAP activity (normalized)” value is listed as −0.568. Besides, the “Activity across all experiments” value in test [1] is given as −1.538.

B8: SSAP_162: SEQ ID NO: 331; Helcococcus sueciensis (protein, listed as Helcococcus sueciensis)
chain: AQAKELLENKTNNTVKKSEKQTMENLLTLMADEIKKALPENVKSERFRRIALTAFNGNKDLQQCEPTSFLAAMMQSAQLGLEPNTPLGQAYLIPYNNSKKNIKEVQFQVGYKGMLDLAHRTNQYKNIQANIVYEKDEFDIEYGLNPKLKHIPNMKEDRGQAIGYYAVYNLINGGQGFEYMTRAEVEKHAQKFSKTYRNGPWQTDFDEMAKKTVLKKVLKYAPMSTELQEATAIDERVVNEENIKSKNEDKFVDVDWSYVDDVEEDVIE
For the molecule B8, in the test with gene editing with Cas9, the “Cas9 with SSAP activity” value was found to be 0.273 and the “Cas9 with SSAP activity (normalized)” value worked out at 0.278. Further, in the test with gene editing with dCas9, the “dCas9 with SSAP activity” value was −2.073 and the “dCas9 with SSAP activity (normalized)” value is −1.380. In addition, the “Activity across all experiments” value in test [1] is recorded as −0.900.

B9: SSAP_81: SEQ ID NO: 250 (protein)
chain: TDVKQELERKVGKQDSTAVRLTKNMSIPDMIKALEPEIRRALPAVLTPERFLRMALSAVNNTPKLAECTPMSFIAAMMNAAQLGLEPNTPLGQAYLIPYKNKNQLECQFQIGYKGIIDLAYRTGQMQMIQAHAVHEFDDFEYEYGLNPKLIHRPGDGNRGEITYFYGLFKLVNGGFGFEVMNREAMEAFAQQYSQSYGSQYSPWVKNFEDMAKKTVIKKALKYGPVKAEFQKAISMDETIKTEIAVDMTEVQNEESE
Turning to B9, in the test on gene editing with Cas9, the “Cas9 with SSAP activity” value is reported as −2.257 and the “Cas9 with SSAP activity (normalized)” value is recorded as −0.341. In the test with gene editing with dCas9, the “dCas9 with SSAP activity” value was −2.360 and the “dCas9 with SSAP activity (normalized)” value is given as −0.367. The “Activity across all experiments” value in test [1] is listed as −2.308.

B10: SSAP_32: SEQ ID NO: 201 (protein)
chain: EFETDEEEKEMSNNQLSTQQAKRDIAIDTSVWTFQDVKRYFDPQNLLTEKQVGQALSLIKGRNLNPLANEVYIVAYKKKTGGTEFSLIVSKEAFLKRAAQNPNYEGFEAGVVTVDTDGVMHERKGALMLPGDTLVGGWARVYRKNFKVPVEIFVSREEYDKKQSTWNAMPATMIRKTALVNALREAFPEDLGNMYTEDDGGETFDRIKQAEPVESREDVMARKMAQIEQMKQEQAQRQIDTSYPTDDVIDPDDEPAQGELLEDLEY
As for B10, in the test with gene editing with Cas9, the “Cas9 with SSAP activity” value is given as −0.435 and the “Cas9 with SSAP activity (normalized)” value is recorded as −1.203. In the test with gene editing with dCas9, the “dCas9 with SSAP activity” value was −2.180 and the “dCas9 with SSAP activity (normalized)” value is −0.281. In addition, in test [1], the “Activity across all experiments” value is −1.308.

B11: SSAP_224: SEQ ID NO: 393; Clostridium tyrobutyricum (protein, listed as Clostridium tyrobutyricum)
chain: SDKKMVVLGESHKALSKLLETKQEALPKDFNKARFLQNCMTVLQDTKDIDKCQPISVARTMLKGAFLGLDFFNRECYAIPYGGNLQFQTDYKGEIKLAKKYSFNSIKDIYAKIVREGDDFQESIEDGRQTINFKPLPFNNGEIIGAFAVCLFQDGSMLYETMTKQEIEDIRNNFSKAKNSPAWVKTPGEMYKKTVLRRLCKLIELDFDSVETKKTYDETSEFEFGSANHEVSNFDKDDSNIIEADAEIQDDVQEGDGEDE
Regarding B11, in the test with gene editing with Cas9, the “Cas9 with SSAP activity” value worked out at 3.010 and the “Cas9 with SSAP activity (normalized)” value amounted to 2.232. Moreover, in the test on gene editing with dCas9, the “dCas9 with SSAP activity” value is given as −2.113 and the “dCas9 with SSAP activity (normalized)” value was −0.351. The “Activity across all experiments” value in test [1] is given as 0.449.

B12: SSAP_203: SEQ ID NO: 372; Oenococcus oeni (protein, listed as Oenococcus oeni)
chain: SNELKTILNAPTTKEKFDEVLGRNAQGYINSVLNAVGNSKLLQNASPNSILSGAMKAATLNLSIDPNLGYAYFVPYGHEAQLQIGYQGLIQLAQRSGQIKILNAAPIYDEQFKSLDPVTGKLTLNKKIVPDTNKKPTGYVAYLKTVTGFEHTEFMSYADIEKFAKRFSKSFNSSTSPWKTDFNAMAKKTLIKQVLKYAPMSIDLQTAVSADNDDIEPKDITPDEDKETVDKISNLISDNKQDDTLSQLEEVANANN
As to B12, in the test on gene editing with Cas9, the “Cas9 with SSAP activity” value is −2.670 and the “Cas9 with SSAP activity (normalized)” value was −0.476. Also, in the test with gene editing with dCas9, the “dCas9 with SSAP activity” value is −2.129 and the “dCas9 with SSAP activity (normalized)” value is on record as −0.311. Besides, the “Activity across all experiments” value in test [1] is on record as −2.400.
